In patent publication US20170342119A1:

Target: IL-15 βγ receptors on 32Dβ cells (UniProt P14784)
Test: cell-based or functional assay

Chain of UniProt P14784 (P14784 27-551, chain 1 of 2): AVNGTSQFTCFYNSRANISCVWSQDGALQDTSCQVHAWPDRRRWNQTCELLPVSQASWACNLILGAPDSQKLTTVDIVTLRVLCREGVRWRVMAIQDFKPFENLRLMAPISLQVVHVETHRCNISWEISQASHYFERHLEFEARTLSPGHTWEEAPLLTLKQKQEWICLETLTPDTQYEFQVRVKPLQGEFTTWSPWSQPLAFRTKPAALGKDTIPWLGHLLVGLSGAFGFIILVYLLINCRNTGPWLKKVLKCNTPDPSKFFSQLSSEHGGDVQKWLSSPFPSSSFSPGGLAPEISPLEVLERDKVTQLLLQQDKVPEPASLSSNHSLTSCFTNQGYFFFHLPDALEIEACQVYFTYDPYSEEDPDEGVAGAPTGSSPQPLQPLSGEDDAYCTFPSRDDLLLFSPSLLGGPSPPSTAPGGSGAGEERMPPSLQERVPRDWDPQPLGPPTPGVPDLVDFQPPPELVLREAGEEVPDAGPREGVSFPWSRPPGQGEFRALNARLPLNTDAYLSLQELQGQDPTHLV
Chain of UniProt P14784 (P34902 23-369, chain 2 of 2, further chain): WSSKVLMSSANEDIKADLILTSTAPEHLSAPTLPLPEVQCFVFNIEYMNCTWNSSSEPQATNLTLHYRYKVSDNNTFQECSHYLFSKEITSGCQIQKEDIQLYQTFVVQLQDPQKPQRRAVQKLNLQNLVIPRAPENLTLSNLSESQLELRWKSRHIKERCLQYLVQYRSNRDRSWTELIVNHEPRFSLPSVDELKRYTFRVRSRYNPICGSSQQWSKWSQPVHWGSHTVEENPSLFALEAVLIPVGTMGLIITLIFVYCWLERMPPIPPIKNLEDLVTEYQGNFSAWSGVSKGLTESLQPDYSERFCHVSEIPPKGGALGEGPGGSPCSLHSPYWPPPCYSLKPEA

32Dβ cell proliferation (WST-1), EC50: 0.034 nM
Substance: IL-15 (from UniProt P40933 49-162) (ligand)
